US20120321591A1 (COVX TECHNOLOGIES IRELAND, published 2012)
Bridges are numbered along the chain shown (N, C = ends). Where no end group is shown, it is not given here. [ ]: non-standard residue; d: D form. 0P linker = not defined here; Nle = CCCC[C@H](N)C(=O)O

T1: human angiopoietin-2 protein (human, UniProt O15123 19-496)
T1 construct: also called Ang-2; Ang2
T1 sequence (looked up): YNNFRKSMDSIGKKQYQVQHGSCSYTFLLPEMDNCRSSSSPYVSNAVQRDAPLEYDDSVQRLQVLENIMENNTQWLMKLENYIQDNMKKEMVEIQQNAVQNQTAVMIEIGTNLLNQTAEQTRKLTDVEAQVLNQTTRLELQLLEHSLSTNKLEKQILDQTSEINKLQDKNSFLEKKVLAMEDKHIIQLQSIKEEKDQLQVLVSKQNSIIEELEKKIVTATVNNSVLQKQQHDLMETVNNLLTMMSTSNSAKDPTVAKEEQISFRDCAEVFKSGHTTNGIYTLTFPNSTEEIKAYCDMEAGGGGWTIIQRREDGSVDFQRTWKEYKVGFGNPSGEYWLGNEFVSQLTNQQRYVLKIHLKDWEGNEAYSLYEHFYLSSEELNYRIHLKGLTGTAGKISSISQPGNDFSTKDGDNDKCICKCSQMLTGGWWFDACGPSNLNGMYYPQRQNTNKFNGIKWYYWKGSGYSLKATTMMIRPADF

B1: Compound 4027, peptide plus linker (T) (peptide)
peptide: QKYQPLDELDK(0P linker)TLYDQFMLQQG-NH2
modifications: reading uncertain; also: N-terminal acyl cap, printed as QKY QPL DEL DK(0P)T LYD QFM LQQ G
notes: also called 4027 T
B2: Compound 4060, peptide plus linker (T) (peptide)
peptide: QHYQPLDELDKTLYDQFMLQQG-NH2
modifications: not fully specified (residue 11, N-terminus); printed as QHY QPL DEL DK(0P)T LYD QFM LQQ G; also: N-terminal acyl cap
notes: also called 4060 T
B3: Compound 4059, peptide plus linker (T) (peptide)
peptide: QRYQPLDELDKTLYDQFMLQQG-NH2
modifications: not fully specified (residue 11, N-terminus); printed as QRY QPL DEL DK(0P)T LYD QFM LQQ G; also: N-terminal acyl cap
notes: also called 4059 T
B4: Compound 4033, peptide plus linker (T) (peptide)
peptide: QK(Ac)YQPLDEK(0P linker)DETLYDQFMLQQG
modifications: reading uncertain; also: N-terminal acyl cap, C-terminal amino cap, printed as Q(Kac)Y QPL DEK(0P) DET LYD QFM LQQ G
notes: also called 4033 T

Target: T2, recombinant human VEGF165 (human, UniProt P15692-4 27-191)
T2 construct: also called rhVEGF165
T2 sequence (P15692 other isoform, or with tags, fused parts or gaps limits assumed): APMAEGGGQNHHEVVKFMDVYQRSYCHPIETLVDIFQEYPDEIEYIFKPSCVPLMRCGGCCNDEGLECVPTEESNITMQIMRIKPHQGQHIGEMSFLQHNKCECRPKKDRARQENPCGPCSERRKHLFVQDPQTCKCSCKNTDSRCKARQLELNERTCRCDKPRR
Experiment: competition ELISA: VEGF165 binding to coated VEGFR2/Fc

Row | Binder | IC50 [nM]
1 | Ac-VEPNCDIHVMWVWECFERLY-NH2 (disulfide 5-15 (inferred)) [[VEGF-Peptide] SEQ ID NO:41] | 69.9
2 | Ac-VEPNCDIHVMWVWECFERL[dL]K(Ac)-NH2 (disulfide 5-15) [[VEGF-Peptide] SEQ ID NO:60] | 25
3 | Ac-VEPNCDIHVMWVWECFERLMK-NH2 (disulfide 5-15 (inferred)) [[VEGF-Peptide] SEQ ID NO:62] | 25
4 | Ac-VEPNCDIHVMWVWVCFERLMK-NH2 (disulfide 5-15 (inferred)) [[VEGF-Peptide] SEQ ID NO:38] | 92.6
5 | Ac-VEPNCDIHVMWVWECFERLMR-NH2 (disulfide 5-15 (inferred)) [[VEGF-Peptide] SEQ ID NO:49] | 34.5
6 | Ac-VEPNCDIHVMWVWECFERLYK-NH2 (disulfide 5-15 (inferred)) [[VEGF-Peptide] SEQ ID NO:58] | 25.1
7 | Ac-VEPNCDIHVMWVWECFERLYG-NH2 (disulfide 5-15 (inferred)) [[VEGF-Peptide] SEQ ID NO:47] | 43.3
8 | Ac-VEPNCDIHVMWVWECFERLVK-NH2 (disulfide 5-15 (inferred)) [[VEGF-Peptide] SEQ ID NO:48] | 42.4
9 | Ac-VEPNCDIHVMWVWECFERLLK-NH2 (disulfide 5-15 (inferred)) [[VEGF-Peptide] SEQ ID NO:67] | 10.1
10 | Ac-VEPNCDIHVMWVWECFERLIK-NH2 (disulfide 5-15 (inferred)) [[VEGF-Peptide] SEQ ID NO:57] | 25.4
11 | Ac-VEPNCDIHVMWVWECFERLYGG-NH2 (disulfide 5-15 (inferred)) [[VEGF-Peptide] SEQ ID NO:52] | 32.3
12 | Ac-VEPNCDIHVMWVWECFERLYGL-NH2 (disulfide 5-15 (inferred)) [[VEGF-Peptide] SEQ ID NO:72] | 4.8
13 | Ac-VEPNCDIHVMWVWECFERLLK(Ac)-NH2 (disulfide 5-15) [[VEGF-Peptide] SEQ ID NO:68] | 10
14 | Ac-VEPNCDIHVMWVWECFERLYGIF-NH2 (disulfide 5-15 (inferred)) [[VEGF-Peptide] SEQ ID NO:40] | 78.3
15 | Ac-VEPNCDIHVMWVWECFERLYGEF-NH2 (disulfide 5-15 (inferred)) [[VEGF-Peptide] SEQ ID NO:70] | 9.3
16 | Ac-VEPNCDIHVMWVWECFERLYGPF-NH2 (disulfide 5-15 (inferred)) [[VEGF-Peptide] SEQ ID NO:77] | 1.8
17 | Ac-VEPNCDIHVMWVWECFERLYGLE-NH2 (disulfide 5-15 (inferred)) [[VEGF-Peptide] SEQ ID NO:75] | 3
18 | Ac-VEPNCDIHVMWVWECFERLYGVQ-NH2 (disulfide 5-15 (inferred)) [[VEGF-Peptide] SEQ ID NO:74] | 4

Row | Binder | IC50 [nM]
19 | Ac-VEPNCDIHVMWVWECFERLMGLT-NH2 (disulfide 5-15 (inferred)) [[VEGF-Peptide] SEQ ID NO:59] | 25
20 | Ac-VEPNCDIHVMWVWECFERLMRLT-NH2 (disulfide 5-15 (inferred)) [[VEGF-Peptide] SEQ ID NO:46] | 44.1
21 | Ac-VEPNCDIHVMWVWECFERLYGPW-NH2 (disulfide 5-15 (inferred)) [[VEGF-Peptide] SEQ ID NO:66] | 18.7
22 | Ac-VEPNCDIHVMWVWVCFERLYGGG-NH2 (disulfide 5-15 (inferred)) [[VEGF-Peptide] SEQ ID NO:43] | 66
23 | Ac-VEPNCDIHVMWVWECFERLYGGF-NH2 (disulfide 5-15 (inferred)) [[VEGF-Peptide] SEQ ID NO:56] | 26.2
24 | Ac-VEPNCDIHVMWVWECFERLYGIL-NH2 (disulfide 5-15 (inferred)) [[VEGF-Peptide] SEQ ID NO:50] | 34.4
25 | Ac-VEPNCDIHVMWVWECFERLYGLY-NH2 (disulfide 5-15 (inferred)) [[VEGF-Peptide] SEQ ID NO:44] | 54.6
26 | Ac-VEPNCDIHVMWVWECFERLSGGG-NH2 (disulfide 5-15 (inferred)) [[VEGF-Peptide] SEQ ID NO:45] | 51
27 | Ac-VEPNCDIHVMWVWECFERLYGWG-NH2 (disulfide 5-15 (inferred)) [[VEGF-Peptide] SEQ ID NO:42] | 68.2
28 | Ac-VEPNCDIHVMWVWECFERLMKEL-NH2 (disulfide 5-15 (inferred)) [[VEGF-Peptide] SEQ ID NO:65] | 18
29 | Ac-VEPNCDIHVMWVWECFERLYGGG-NH2 (disulfide 5-15 (inferred)) [[VEGF-Peptide] SEQ ID NO:61] | 23.6
30 | Ac-VEPNCDIHVMWVWECFERLYGLS-NH2 (disulfide 5-15 (inferred)) [[VEGF-Peptide] SEQ ID NO:71] | 5.4
31 | Ac-VEPNCDIHVMWVWECFERLYGPL-NH2 (disulfide 5-15 (inferred)) [[VEGF-Peptide] SEQ ID NO:76] | 2.3
32 | Ac-VEPNCDIHVMWVWECFERLFKEA-NH2 (disulfide 5-15 (inferred)) [[VEGF-Peptide] SEQ ID NO:53] | 31.4
33 | Ac-VEPNCDIHVMWVWECFERLMREL-NH2 (disulfide 5-15 (inferred)) [[VEGF-Peptide] SEQ ID NO:63] | 24
34 | Ac-VEPNCDIHVMWVWECFERL[Nle]K-NH2 (disulfide 5-15) [[VEGF-Peptide] SEQ ID NO:54] | 28.6
35 | Ac-VEPNCDIHVMWVWECFERL-NH2 (disulfide 5-15 (inferred)) [[VEGF-Peptide] SEQ ID NO:64] | 24

Target: T1, human angiopoietin-2 protein
Experiment: competitive ELISA: Tie-2-Fc binding to coated Ang-2; T
Method: Plates were washed three times with washing buffer (0.1% Tween 20, PBS, pH 7.4) and blocked with Superblock (Scytek), […] at room temperature (“RT”) for 1 hour. […] Plates were washed 3 times with washing buffer. […] Following incubation, 50 ul of 1:5,000 dilution of goat anti-mouse IgG-HRP in Superblock was then added and incubated at RT for one hour. After washing 3 times, […] was added, and incubated for 3-5 minutes. Color development was monitored and stopped with 25 μl of 2 M H₂SO₄. OD450 nm with a correction wavelength of 540 nm was measured.

Row | Binder | IC50 [nM]
36 | QXYQPLDELDKTLYDQFMLQQG (N-terminal acyl cap; C-terminal amino cap; Kac 2; 4P linker on K11, also called 4024 T) [Compound 4024, peptide plus linker (T)] | 207
37 | QKYQPLDELDKTLYDQFMLQQG-NH2 (not fully specified (N-terminus), also called 4026 T) [Compound 4026, peptide plus linker (T)] | 32.3
38 | B1 | 29
39 | B2 | 214
40 | B3 | 177
41 | B4 | 370
42 | QXYQPLDEIDKTLYDQFMLQQG (N-terminal acyl cap; C-terminal amino cap; Kac 2; 0P linker on K11, also called 4037 T) [Compound 4037, peptide plus linker (T)] | 1270
43 | QXYQPLDELDKTIYDQFMLQQG (N-terminal acyl cap; C-terminal amino cap; Kac 2; 0P linker on K11, also called 4036 T) [Compound 4036, peptide plus linker (T)] | 2410
44 | QXYQPLDELDKTLFDQFMLQQG (N-terminal acyl cap; C-terminal amino cap; Kac 2; 0P linker on K11, also called 4044 T) [Compound 4044, peptide plus linker (T)] | 36.9
